Assays:
[1] = molecular target: T1, recombinant human αvβ8 protein (PARS-17102) (human); assay: SPR binding assay, experiment 1, antibody as ligand, aVb8 as sample
T1 construct: also called hu.aVb8.17102; not shown: C-terminal acid/basic coils and any purification tags
T1 alpha: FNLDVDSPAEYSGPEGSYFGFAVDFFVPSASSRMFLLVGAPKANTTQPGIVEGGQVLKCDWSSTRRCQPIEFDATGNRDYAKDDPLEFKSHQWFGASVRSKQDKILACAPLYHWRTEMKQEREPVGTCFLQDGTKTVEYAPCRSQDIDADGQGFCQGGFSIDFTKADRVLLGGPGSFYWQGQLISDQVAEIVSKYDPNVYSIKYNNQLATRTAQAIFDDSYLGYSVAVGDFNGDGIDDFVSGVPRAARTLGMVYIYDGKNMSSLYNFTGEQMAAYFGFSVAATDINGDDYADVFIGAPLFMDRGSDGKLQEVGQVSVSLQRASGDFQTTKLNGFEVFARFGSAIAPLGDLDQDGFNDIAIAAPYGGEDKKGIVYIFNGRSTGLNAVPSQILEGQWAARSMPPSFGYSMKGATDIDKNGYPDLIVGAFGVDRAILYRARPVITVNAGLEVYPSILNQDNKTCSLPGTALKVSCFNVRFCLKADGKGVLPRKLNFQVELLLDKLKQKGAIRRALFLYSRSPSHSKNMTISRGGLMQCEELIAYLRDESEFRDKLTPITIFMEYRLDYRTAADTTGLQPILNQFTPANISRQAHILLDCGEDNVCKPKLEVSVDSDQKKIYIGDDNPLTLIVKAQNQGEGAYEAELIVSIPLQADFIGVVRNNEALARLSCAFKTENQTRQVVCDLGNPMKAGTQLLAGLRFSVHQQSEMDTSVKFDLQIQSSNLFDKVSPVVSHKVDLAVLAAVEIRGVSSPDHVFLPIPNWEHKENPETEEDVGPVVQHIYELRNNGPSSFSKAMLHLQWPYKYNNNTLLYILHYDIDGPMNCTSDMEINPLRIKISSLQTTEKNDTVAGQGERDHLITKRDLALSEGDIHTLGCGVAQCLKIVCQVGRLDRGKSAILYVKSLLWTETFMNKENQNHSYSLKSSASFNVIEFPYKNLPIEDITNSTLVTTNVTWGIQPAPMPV
T1 beta: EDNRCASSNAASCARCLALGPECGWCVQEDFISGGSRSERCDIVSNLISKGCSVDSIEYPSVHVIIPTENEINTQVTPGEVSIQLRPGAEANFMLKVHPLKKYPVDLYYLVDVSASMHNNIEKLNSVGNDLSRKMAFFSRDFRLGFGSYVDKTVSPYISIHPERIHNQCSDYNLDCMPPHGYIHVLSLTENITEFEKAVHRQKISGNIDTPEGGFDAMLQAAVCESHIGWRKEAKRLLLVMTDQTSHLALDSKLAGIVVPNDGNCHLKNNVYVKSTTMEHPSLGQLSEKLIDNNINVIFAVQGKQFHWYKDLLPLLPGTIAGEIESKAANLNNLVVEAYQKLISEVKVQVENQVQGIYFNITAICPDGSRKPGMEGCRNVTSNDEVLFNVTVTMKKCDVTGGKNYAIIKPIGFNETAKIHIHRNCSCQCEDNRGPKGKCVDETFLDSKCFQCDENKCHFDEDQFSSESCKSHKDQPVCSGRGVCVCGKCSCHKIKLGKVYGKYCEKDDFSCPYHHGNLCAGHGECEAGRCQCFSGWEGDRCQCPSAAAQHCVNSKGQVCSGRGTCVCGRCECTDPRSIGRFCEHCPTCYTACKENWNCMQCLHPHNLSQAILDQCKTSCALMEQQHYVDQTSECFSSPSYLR

[2] = molecular target: T2, recombinant mouse αvβ8 protein (PARS-17103) (murine, UniProt P43406 31-988; Q0VBD0 43-681, limits assumed); assay: as above
T2 construct: Made in house; also called mu.aVb8.17103

[3] = molecular target: T3, recombinant cynomolgus monkey αvβ8 protein (PARS-19393) (cynomolgus monkey, UniProt A0A2K5WCD3 31-992; G7P0S0 43-684); assay: as above
T3 construct: also called cyno.aVb8-19393; cyno.aVb8

[4] = molecular target: T1, recombinant human αvβ8 protein …; assay: SPR binding assay, experiment 2, antibody as ligand, aVb8 as sample
[5] = molecular target: T2, recombinant mouse αvβ8 protein …; assay: as above
[6] = molecular target: T4, cyno.aVb8.13650 (cynomolgus, UniProt A0A2K5WCD3 31-992; G7P0S0 43-684); assay: as above
T4 construct: Carries another lot/construct number than cyno.aVb8-19393; kept apart; also called cynomolgus αvβ8

T2 sequence (P43406 31-988 limits assumed, chain 1 of 2): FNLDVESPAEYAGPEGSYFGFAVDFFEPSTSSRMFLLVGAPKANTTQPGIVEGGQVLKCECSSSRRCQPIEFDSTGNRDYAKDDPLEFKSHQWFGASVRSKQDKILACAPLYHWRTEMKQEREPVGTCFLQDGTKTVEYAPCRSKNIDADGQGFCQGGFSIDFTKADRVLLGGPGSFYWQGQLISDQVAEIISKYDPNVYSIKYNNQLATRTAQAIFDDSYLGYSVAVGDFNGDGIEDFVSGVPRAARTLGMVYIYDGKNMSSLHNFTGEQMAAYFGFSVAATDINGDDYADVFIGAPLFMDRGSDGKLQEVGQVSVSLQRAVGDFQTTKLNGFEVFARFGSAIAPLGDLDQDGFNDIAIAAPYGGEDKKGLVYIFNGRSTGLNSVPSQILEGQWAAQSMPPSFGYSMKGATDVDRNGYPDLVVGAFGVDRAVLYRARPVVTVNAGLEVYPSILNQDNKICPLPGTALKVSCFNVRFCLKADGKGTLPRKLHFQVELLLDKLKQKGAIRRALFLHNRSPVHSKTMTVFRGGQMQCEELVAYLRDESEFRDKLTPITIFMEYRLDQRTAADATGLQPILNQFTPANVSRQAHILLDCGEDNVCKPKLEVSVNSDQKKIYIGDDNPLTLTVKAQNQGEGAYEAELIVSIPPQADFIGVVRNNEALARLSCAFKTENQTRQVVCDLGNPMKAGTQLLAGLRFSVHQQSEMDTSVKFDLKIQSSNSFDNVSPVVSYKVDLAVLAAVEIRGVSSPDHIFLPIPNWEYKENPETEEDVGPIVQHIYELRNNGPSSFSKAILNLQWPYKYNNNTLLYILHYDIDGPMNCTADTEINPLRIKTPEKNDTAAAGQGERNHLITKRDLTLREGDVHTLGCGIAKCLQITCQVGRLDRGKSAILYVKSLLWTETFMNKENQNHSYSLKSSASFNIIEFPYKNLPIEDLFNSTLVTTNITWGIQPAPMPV
T2 sequence (Q0VBD0 43-681 limits assumed, chain 2 of 2): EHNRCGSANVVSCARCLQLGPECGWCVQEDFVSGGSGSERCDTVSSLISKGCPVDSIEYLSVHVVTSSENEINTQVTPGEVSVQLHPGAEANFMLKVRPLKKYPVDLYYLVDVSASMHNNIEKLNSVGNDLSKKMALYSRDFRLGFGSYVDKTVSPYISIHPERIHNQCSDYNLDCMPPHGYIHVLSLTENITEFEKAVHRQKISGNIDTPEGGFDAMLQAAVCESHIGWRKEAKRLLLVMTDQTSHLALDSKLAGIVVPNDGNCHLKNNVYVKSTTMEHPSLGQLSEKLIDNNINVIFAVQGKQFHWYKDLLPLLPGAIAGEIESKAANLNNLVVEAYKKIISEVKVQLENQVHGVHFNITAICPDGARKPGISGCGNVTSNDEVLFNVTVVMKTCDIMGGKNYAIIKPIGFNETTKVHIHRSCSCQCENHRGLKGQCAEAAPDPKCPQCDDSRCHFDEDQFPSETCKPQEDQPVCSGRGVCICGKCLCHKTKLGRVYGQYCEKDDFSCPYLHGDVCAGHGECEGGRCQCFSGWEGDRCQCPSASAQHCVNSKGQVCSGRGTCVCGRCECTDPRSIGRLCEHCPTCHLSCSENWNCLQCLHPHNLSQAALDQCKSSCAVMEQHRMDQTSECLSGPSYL

B1: Hu.aVb8-65.H15L2 (aVb8-65.H15L2.hIgG1.LALAPG) (antibody, V domains shown)
VH: EVQLLESGGGLVQPGGSLRLSCAASGIDLSNYAMIWVRQAPGKGLEWVGIISSSDRIWYASWVKGRFTISRDNSKNTLYLQMNSLRAEDTAVYYCSRSVSNSYFDGWNLWGQGTLVTVSS
VL: DIQMTQSPSSVSASVGDRVTITCQASENINSLLAWYQQKPGKAPKLLIYRASTLASGVPSRFSGSGSGTDFTLTISSLQPEDFATYYCQSNYGFTGSGAFFYGFGQGTKVEIKR
notes: Human IgG1 LALAPG; also called PARS-20475-65 (IH) aVb8-65.H15L2.hIgG1.LALAPG; humanized αvβ8-65
Binder B1 has a Kd [1] of 0.384 nM, a koff [1] of 0.000208 s⁻¹ and a kon [1] of 540000 M⁻¹ s⁻¹. It also gave a Kd [2] of 0.906 nM, a koff [2] of 0.000155 s⁻¹ and a kon [2] of 171000 M⁻¹ s⁻¹. The Kd [3] was 0.48 nM, the koff [3] was 0.000164 s⁻¹ and the kon [3] was 341000 M⁻¹ s⁻¹. It also gave a Kd [4] of 1.04 nM, a koff [4] of 0.000181 s⁻¹ and a kon [4] of 174000 M⁻¹ s⁻¹. For the same binder, the Kd [5] was 1.23 nM, the koff [5] was 0.000152 s⁻¹ and the kon [5] was 123000 M⁻¹ s⁻¹. It also gave a Kd [6] of 2.41 nM, a koff [6] of 0.000151 s⁻¹ and a kon [6] of 62700 M⁻¹ s⁻¹.

Source: US20240327522A1 (Genentech, published 2024)
